Laboratory results: article PMC9084892, “Von Willebrand factor A1 domain stability and affinity for GPIbα are differentially regulated by its O-glycosylated N- and C-linker” (eLife, 2022)
Blank lines part the entries; values can stand above or below the molecule they belong to.

Assays:
[1] = molecular target: GPIbα (Homo sapiens) (UniProt P07359); conditions: cited from earlier work
[2] = molecular target: T1, VWF A1 domain construct A1 short (residues 1264-1469) (human, UniProt P04275 1264-1469); experiment: BLI; biotinylated GPIbα on streptavidin sensors, A1 constructs as analyte; 20 mM HEPES pH 7.5, 0.02% Tween-20, 150 mM NaCl; global fit to a single kon and koff; Octet RED384; conditions: both partners purified
T1 construct: von Willebrand factor, human, A1 domain without the N- and C-linkers, residues 1264-1469, pre-pro-VWF numbering; Both the mammalian and the bacterial methods allow a 1264-1469 construct; If it was made in E. coli, it carried an N-terminal thioredoxin that was cut off with TEV protease; Long-range disulfide Cys1272-Cys1458 is present; source: purified (Ni-NTA, Superdex 200), gel filtered again on …

[3] = molecular target: T2, VWF A1 domain construct A1+OGly+N+C (residues 1238-1489, O-glycosylated) (human, UniProt P04275 1238-1489, O-glycosylated N- and C-linkers); experiment: as above; conditions: both partners purified
T2 construct: von Willebrand factor, human, A1 domain with the N- and C-linkers, residues 1238-1489, pre-pro-VWF numbering; It extends three residues beyond the bacterial A1+N+C so as to include the O-glycosylated residues Ser-1486 and Thr-1487; also called A1NC

[4] = molecular target: T1, VWF A1 domain construct A1 short …; experiment: ITC; GPIbα (250 uM; 550 uM with A1+OGly+N+C) titrated into A1 (22 uM; 50 uM with A1+OGly+N+C); 150 mM NaCl, 20 mM Tris-HCl pH 7.5, 22°C; MicroCal iTC200; conditions: both partners purified

Molecule: von Willebrand factor A1 (tethered, high-affinity state) (from UniProt P04275)
Kd [1]: 80 nM

Kd [2]: 180 nM
Kd [3]: 9.2 µM
B1: Wild-type GPIbα, residues 1-290 of the mature protein, with biotinylated Avi-tag and His6 tag (domain or fragment)
chain: HPICEVSKVASHLEVNCDKRNLTALPPDLPKDTTILHLSENLLYTFSLATLMPYTRLTQLNLDRCELTKLQVDGTLPVLGTLDLSHNQLQSLPLLGQTLPALTVLDVSFNRLTSLPLGALRGLGELQELYLKGNELKTLPPGLLTPTPKLEKLSLANNNLTELPAGLLNGLENLDTLLLQENSLYTIPKGFFGSHLLPFAFLHGNPWLCNCEILYFRRWLQDNAENVYVWKQGVDVKAMTSNVASVQCDNSDKFPVYKYPGKGCPTLGDEGDTDLYDYYPEEDTEGDKVR
modifications: biotin on the Avi-tag

fold higher affinity of A1 short than of A1+OGly+N+C [4]: 39 fold
B2: Wild-type GPIbα, residues 1-290 of the mature protein, with His6 tag (no Avi-tag) (domain or fragment)
chain: HPICEVSKVASHLEVNCDKRNLTALPPDLPKDTTILHLSENLLYTFSLATLMPYTRLTQLNLDRCELTKLQVDGTLPVLGTLDLSHNQLQSLPLLGQTLPALTVLDVSFNRLTSLPLGALRGLGELQELYLKGNELKTLPPGLLTPTPKLEKLSLANNNLTELPAGLLNGLENLDTLLLQENSLYTIPKGFFGSHLLPFAFLHGNPWLCNCEILYFRRWLQDNAENVYVWKQGVDVKAMTSNVASVQCDNSDKFPVYKYPGKGCPTLGDEGDTDLYDYYPEEDTEGDKVR
modifications: Mature 1-290 = precursor 17-306 (signal peptide 1-16). The His6 tag is left out; no Avi-tag or biotin. Expressed in HEK293, so glycosylated and disulfide-bonded.
